Assay results taken from FireProtDB (doi:10.1021/acs.biochem.7b00833).
Where “and” joins values, the source holds several entries; their conditions need not be identical. Identical values can stand only once.

B1: SCO1 protein homolog, P54178 (parent)
chain: MKVIKGLTAGLIFLFLCACGGQQIKDPLNYEVEPFTFQNQDGKNVSLESLKGEVWLADFIFTNCETICPPMTAHMTDLQKKLKAENIDVRIISFSVDPENDKPKQLKKFAANYPLSFDNWDFLTGYSQSEIEEFALKSFKAIVKKPEGEDQVIHQSSFYLVGPDGKVLKDYNGVENTPYDDIISDVKSASTLK

Variants of: B1
Conditions: Bacillus subtilis (strain 168), pH 7, CD, Sodium Phosphate Buffer, structure 1XZO, whole UniProt chain shown; for ddG of mutation (higher = less stable) / denaturant m value / denaturant midpoint (higher = more stable) / unfolding free energy: 25 °C, Urea

Question: Which “ddG of mutation (higher = less stable)” value does the source give for MKVIKGLTAGLIFLFLCACGGQQIKDPLNYEVEPFTFQNQDGKNVSLESLKGEVALADFIFTNCETICPPMTAHMTDLQKKLKAENIDVRIISFSVDPENDKPKQLKKFAANYPLSFDNWDFLTGYSQSEIEEFALKSFKAIVKKPEGEDQVIHQSSFYLVGPDGKVLKDYNGVENTPYDDIISDVKSASTLK here?
Answer: The value was 37.4 kJ/mol.

Question: And the denaturant m value?
Answer: The denaturant m value was 1.92 kcal/mol/M.

Question: And the “denaturant midpoint (higher = more stable)” value (from here on “denaturant midpoint”)?
Answer: The value was 0.75 M.

Question: And the unfolding free energy?
Answer: Its unfolding free energy is 4.18 kJ/mol.

Question: Which results are given for MKVIKGLTAGLIFLFLCACGGQQIKDPLNYEVEPFTFQNQDGKNVSLESLKGEVALADFIWTNCETICPPMTAHMTDLQKKLKAENIDVRIISFSVDPENDKPKQLKKFAANYPLSFDNWDFLTGYSQSEIEEFALKSFKAIVKKPEGEDQVIHQSSFYLVGPDGKVLKDYNGVENTPYDDIISDVKSASTLK?
Answer: ddG of mutation (higher = less stable): 33.6 kJ/mol; denaturant m value: 3.74 kcal/mol/M; denaturant midpoint (higher = more stable): 0.8 M; unfolding free energy: 7.95 kJ/mol

Question: For MKVIKGLTAGLIFLFLCACGGQQIKDPLNYEVEPFTFQNQDGKNVSLESLKGEVFLADFIWTNCETICPPMTAHMTDLQKKLKAENIDVRIISFSVDPENDKPKQLKKFAANYPLSFDNWDFLTGYSQSEIEEFALKSFKAIVKKPEGEDQVIHQSSFYLVGPDGKVLKDYNGVENTPYDDIISDVKSASTLK, which “ddG of mutation (higher = less stable)” value is on record?
Answer: The value was 17.3 kJ/mol.

Question: What about the denaturant m value of the same variant?
Answer: Its denaturant m value is 3.37 kcal/mol/M.

Question: What about the “denaturant midpoint” value of the same variant?
Answer: The value was 1.72 M.

Question: What about the unfolding free energy of the same variant?
Answer: Its unfolding free energy is 24.2 kJ/mol.

Question: What about the “change of melting temperature, mutant - wild type (higher = more stable)” value (from here on “change of melting temperature, mutant”) (Thermal) of the same variant?
Answer: Its value is -6.2 °C and -9.1 °C.

Question: Which results are given for MKVIKGLTAGLIFLFLCACGGQQIKDPLNYEVEPFTFQNQDGKNVSLESLKGEVWLADFIWTNCETICPPMTAHMTDLQKKLKAENIDVRIISFSVDPENDKPKQLKKFAANYPLSFDNWDFLTGYSQSEIEEFALKSFKAIVKKPEGEDQVIHQSSFYLVGPDGKVLKDYNGVENTPYDDIISDVKSASTLK?
Answer: ddG of mutation (higher = less stable): -12 kJ/mol; denaturant m value: 4.24 kcal/mol/M; unfolding free energy: 53.6 kJ/mol; change of melting temperature, mutant - wild type (higher = more stable) (Thermal): 4.3 °C and -0.6 °C

Question: Which “ddG of mutation (higher = less stable)” value does the source give for MKVIKGLTAGLIFLFLCACGGQQIKDPLNYEVEPFTFQNQDGKNVSLESLKGEVWLADFIFTNCETICPPMTAHMTDLQKKLKAENIDVRIISFSVDPENDKPKQLKKFAANYPLSFDNFDFLTGYSQSEIEEFALKSFKAIVKKPEGEDQVIHQSSFYLVGPDGKVLKDYNGVENTPYDDIISDVKSASTLK here?
Answer: The value was 12.1 kJ/mol.

Question: And the denaturant m value?
Answer: Its denaturant m value is 3.93 kcal/mol/M.

Question: What about the “denaturant midpoint” value of the same variant?
Answer: Its value is 1.77 M.

Question: And the unfolding free energy?
Answer: Its unfolding free energy is 29.5 kJ/mol.

Question: And the Tm (Thermal)?
Answer: The Tm was 43.5 °C.

Question: With MKVIKGLTAGLIFLFLCACGGQQIKDPLNYEVEPFTFQNQDGKNVSLESLKGEVWLADFIWTNCETICPPMTAHMTDLQKKLKAENIDVRIISFSVDPENDKPKQLKKFAANYPLSFDNFDFLTGYSQSEIEEFALKSFKAIVKKPEGEDQVIHQSSFYLVGPDGKVLKDYNGVENTPYDDIISDVKSASTLK as the variant, how does the “ddG of mutation (higher = less stable)” value read?
Answer: Its value is 17.5 kJ/mol.

Question: What about the denaturant m value of the same variant?
Answer: Its denaturant m value is 3.17 kcal/mol/M.

Question: And the “denaturant midpoint” value?
Answer: Its value is 1.81 M.

Question: And the unfolding free energy?
Answer: Its unfolding free energy is 24.1 kJ/mol.

Question: And the “change of melting temperature, mutant” value (Thermal)?
Answer: Its value is -7.1 °C and -11.5 °C.

Question: With MKVIKGLTAGLIFLFLCACGGQQIKDPLNYEVEPFTFQNQDGKNVSLESLKGEVALADFIWTNCETICPPMTAHMTDLQKKLKAENIDVRIISFSVDPENDKPKQLKKFAANYPLSFDNADFLTGYSQSEIEEFALKSFKAIVKKPEGEDQVIHQSSFYLVGPDGKVLKDYNGVENTPYDDIISDVKSASTLK as the variant, how does the “change of melting temperature, mutant” value (Thermal) read?
Answer: Its value is -18 °C and -15.7 °C.
